In patent US20260216299A1, “Use of Cytoglobin in Preparation of Drug for Preventing and/or Treating Diabetes” (priority 2022, published 2026):

Columns and labels:
Format in all cases: in vivo, C57BL/6J mice
[1] = system: C57BL/6J diabetic model mice; experiment: Weekly fasting blood glucose in high-fat diet diabetic model mice under treatment; settings: daily subcutaneous injection, rhCygb 5 mg/kg; weekly monitoring; vs PBS group; FIG. 7
Description: 50 SPF-grade male C57BL/6J mice were purchased from Guangzhou Sebiona Biotech Co., Ltd. Their health status and whether they were all male were checked. All male mice were divided into groups of 5 per cage, totaling ten cages, with cage numbering. Cages 1 to 8 were designated as the high-fat diet modeling group and fed a high-fat diet with ad libitum feeding and drinking. Cages 9 and 10 were designated as the normal diet modeling group and fed standard chow with ad libitum feeding and drinking. All mice were marked with tail lines for identification. During modeling, body weight and fasting blood glucose (FBG) levels of all mice were measured weekly, and tail markings were reinforced. […] At 9:00 AM every Friday, body weight was measured, the tail tip was clipped, and approximately 1-2 μL of (a drop of) blood was applied to a Roche Accu-Chek® Active test strip on a glucometer to determine FBG. […]
(§1) The mice of placebo group, rhCygb treatment group, and EX-4 treatment group received daily subcutaneous injections of PBS, rhCygb, or EX-4, respectively for 2 months (frequency adjusted based on survival status of mice). […] Absorbance at 510 nm was measured using a microplate reader. Cholesterol content was calculated according to the formula: […]

[2] = system: C57BL/6J diabetic model mice; experiment: Four blood lipid items in serum of treated mice (T-CHO, TG, HDL-C, LDL-C kits); settings: after 28 d of treatment
Experimental: (§2) The AUC for blood glucose changes within two hours post-glucose gavage was shown in FIG. 5, confirming impaired glucose tolerance in the DM group. • 2) Successfully modeled mice were divided into three groups based on no statistical difference in blood glucose within groups and statistical difference in blood glucose between groups: wherein the three groups are rhCygb treatment group (5 mg/kg subcutaneous injection), exendin-4 treatment group (50 μg/kg subcutaneous injection), and placebo group (0.1 mL PBS subcutaneous injection) (grouping without re-caging, mice remained in original cages), respectively.
(§3) The mice of placebo group, rhCygb treatment group, and EX-4 treatment group received daily subcutaneous injections of PBS, rhCygb, or EX-4, respectively for 2 months (frequency adjusted based on survival status of mice). […] Mice were immediately sacrificed by cervical dislocation after blood collection and dissected for tissue collection. Liver tissue, pancreas, kidneys, heart, lungs, stomach, and spleen were sequentially collected for biochemical and pathological examination as detailed below. 3. Measurement of four blood lipid items • 1) Total Cholesterol (T-CHO) Measurement: prepared serum was diluted tenfold with physiological saline at a 1:9 ratio. Into each well of a 96-well plate, 2.5 μL of deionized water, 2.5 μL of standard, and 2.5 μL of sample were sequentially added. Then, 250 μL of working solution was added to each well, thoroughly mixed, and incubated at 37° C. for 10 min in an electric thermostatic incubator. Absorbance at 510 nm was measured using a microplate reader. Cholesterol content was calculated according to the formula: […]
Serum from each treated C57BL/6J mouse was assayed using a total cholesterol assay kit. […] Furthermore, no significant difference was observed between the treated groups (rhCygb treatment group and exendin-4 treatment group) and the blank control group, indicating effective therapeutic outcomes. • 2) Triglyceride (TG) Measurement: prepared serum was diluted tenfold with physiological saline at a 1:9 ratio. […] Absorbance at 510 nm was measured using a microplate reader. Triglyceride content was calculated according to the formula: […]
Serum from each treated C57BL/6J mouse was assayed using a triglyceride assay kit. […] Absorbance at 546 nm (A1) was measured using a microplate reader. […] Absorbance at 546 nm (A2) was measured again. HDL-C content was calculated according to the formula: […]
Serum from each treated C57BL/6J mouse was assayed using an HDL-C assay kit. […] Absorbance at 546 nm (A1) was measured using a microplate reader. […] Absorbance at 546 nm (A2) was measured again. LDL-C content was calculated according to the formula: […]

[3] = system: pancreatic tissue of C57BL/6J diabetic model mice; experiment: H&E staining of pancreatic tissue sections
Experimental: as §2, §1
The severity of lesions observed in the HE-stained pathological sections of each mouse was graded. This ordinal data was analyzed using the K Independent Samples non-parametric test in SPSS software, and the result indicated a statistically significant difference between groups. As SPSS lacks pairwise comparison for multiple independent samples, all data were ranked and converted into quantitative data, then subjected to one-way ANOVA.

[4] = system: renal tissue of C57BL/6J diabetic model mice; experiment: H&E staining of renal tissue; settings: FIG. 14
Experimental: as §2
as §3, with “Into each well of a 96-well plate, 2.5 μL of deionized water, 2.5 μL of standard, and 2.5 μL of sample were sequentially added. Then, 250 μL of working solution was added to each well, thoroughly mixed, and incubated at 37° C. for 10 min in an electric thermostatic incubator.” left out

PCNA = PCNA immunohistochemistry of pancreatic tissue; settings: pancreas; 4-week treatment; FIG. 15 to 16D
Experimental: (§4) Pancreatic tissues were sectioned at 4 μm and baked at 60° C. for 2 h until paraffin melted. Sections underwent hematoxylin-eosin (H&E) staining.
(§5) Sections were immersed in methanol containing 3% hydrogen peroxide (endogenous peroxidase blocker) for 15 min. After PBS (10 mM, pH=7.0) rinsing, sections were incubated at 25° C. for 1 h with antibody cocktails (rabbit anti-glucagon monoclonal antibody: anti-somatostatin antibody=1:1), or separately with: anti-mouse insulin antigen monoclonal antibody, anti-proliferating cell nuclear antigen (PCNA) monoclonal antibody, rabbit anti-Ki67 monoclonal antibody. Alternatively, sections were incubated with guinea pig anti-PDX-1 monoclonal antibody at 4° C. for 14 h. Nuclei were counterstained blue with hematoxylin and sections were subjected to morphometric analysis.
PCNA Analysis method: The immunohistochemistry results were analyzed for percentage using Image-Pro Plus 6.0 (Media Cybernetics, Rockville, MD, USA), at least 3 random field of view at 200× per section within a group were captured. […] Each photo was analyzed to obtain the number of positive cells and the total number of cells in each photo. Then, the percentage of positive cells was calculated, as: Positive cell percentage (%)=(Positive nuclei count/Total nuclei count)*100 was calculated as the positive rate.

[5] = system: Insulin and Glucagon expression in pancreatic islets; experiment: Glucagon/Insulin immunohistochemistry of pancreatic islets (average optical density)
Experimental: as §4, §5
Glucagon/Insulin Analysis Method: The immunohistochemistry results were analyzed for average optical density analysis using Image-Pro Plus 6.0 (Media Cybernetics, Inc., Rockville, MD, USA). For each section with a group, at least 3 fields of view at 200× magnification were captured. […] The integrated optical density (IOD) value of positive staining on the pancreatic islet and the pixel area (AREA) of the pancreatic islet were analyzed for each photo. The average optical density value (AO value) was calculated as AO=IOD/AREA. […]

B1: rhCygb: recombinant human cytoglobin; hexacoordinate heme globin, 21.4 kDa, 190 amino acids, injected as PBS solution (protein, UniProt Q8WWM9 1-190, looked up)
Cytoglobin: MEKVPGEMEIERRERSEELSEAERKAVQAMWARLYANCEDVGVAILVRFFVNFPSAKQYFSQFKHMEDPLEMERSPQLRKHACRVMGALNTVVENLHDPDKVSSVLALVGKAHALKHKVEPVYFKILSGVILEVVAEEFASDFPPETQRAWAKLRGLIYSHVTAAYKEVGWVQQVPNATTPPATLPSSGP
[1]
  blood glucose: significantly reduced blood glucose after 6 weeks
[2]; vs NC group, FIG. 10
  HDL-C levels: numerically higher HDL-C levels on average compared to other groups
[2]; subcutaneous rhCygb 5 mg/kg or exendin-4 50 μg/kg, FIG. 8
  total cholesterol levels: statistically significant reduction in total cholesterol levels compared to the placebo group
[2]; subcutaneous rhCygb 5 mg/kg or exendin-4 50 μg/kg, FIG. 11
  LDL-C levels: statistically significant reduction in LDL-C levels compared to the placebo group
[2]; subcutaneous rhCygb 5 mg/kg, FIG. 9
  triglyceride levels: statistically significant reduction in triglyceride levels compared to the placebo group
[3]; FIG. 13
  severity of lesions in HE-stained pancreatic sections (graded, ranked, one-way ANOVA): no significant difference between rhCygb and NC groups
[3]; acinar cell steatosis, islet morphology, inflammation, FIGS. 12A-12D
  pancreatic tissue morphology (H&E): normal pancreatic islet morphology without significant inflammation
[4]
  renal steatosis and inflammatory cell infiltration (H&E): near-normal renal morphology without significant inflammatory cells
PCNA
  PCNA-positive cell rate: significantly enhanced PCNA staining intensity
[5]; FIG. 17, 19
  expression level of glucagon (average optical density): statistically significant differences compared to both the PBS group and the NC group
[5]; FIG. 18, 20
  expression level of insulin (average optical density): statistically significant differences compared to both the PBS group and the NC group
